# B1: phosphonoacetate hydrolase (PAc hydrolase) (Pseudomonas fluorescens) (protein)
# chain: TQLISVNSRSYRLSSAPTIVICVDGCEQEYINQAIQAGQAPFLAELTGFGTVLTGDCVVPSFTNPNNLSIVTGAPPSVHGICGNFFFDQETQEEVLMNDAKYLRAPTILAEMAKAGQLVAVVTAKDKLRNLLGHQLKGICFSAEKADQVNLEEHGVENILARVGMPVPSVYSADLSEFVFAAGLSLLTNERPDFMYLSTTDYVQHKHAPGTPEANAFYAMMDSYFKRYHEQGAIVAITADHGMNAKTDAIGRPNILFLQDLLDAQYGAQRTRVLLPITDPYVVHHGALGSYATVYLRDAVPQRDAIDFLAGIAGVEAVLTRSQACQRFELPEDRIGDLVVLGERLTVLGSAADKHDLSGLTVPLRSHGGVSEQKVPLIFNRKLVGLDSPGRLRNFDIIDLALNHLA
# Legend:
# Assay in all cases: purified protein
# purified protein [1] = substrate: O=[N+]([O-])c1ccc(OP(=O)(O)O)cc1; conditions: Zn2+; 25.0 °C
# purified protein [2] = substrate: O=CCP(=O)(O)O; conditions: Zn2+; 25.0 °C
# purified protein [3] = substrate: Nc1ncnc2c1ncn2[C@@H]1O[C@H](COP(=O)(O)OP(=O)(O)OP(=O)(O)O)[C@@H](O)[C@H]1O; format: biochemical, Pseudomonas fluorescens; conditions: Zn2+ active site; phosphoryl transfer to Thr64; 25.0 °C
protein,measurement,setting,value
B1,Km,purified protein [1],14000 ± 200 µM
same,kcat,purified protein [1],0.22 s⁻¹
same,kcat/Km,purified protein [1],20 M⁻¹ s⁻¹
same,Km,purified protein [2],330 ± 10 µM
same,kcat,purified protein [2],0.027 ± 0.01 s⁻¹
same,kcat/Km,purified protein [2],80 M⁻¹ s⁻¹
same,Km,purified protein [3],1000 µM
same,kcat,purified protein [3],0.0002 s⁻¹
same,kcat/Km,purified protein [3],0.2 M⁻¹ s⁻¹

# — paper PMC3102601
